Where two headings read alike, the source gives them in different places. No end group written: not given here.
Key:
[1] = system: Hin recombinase consensus sequence (hixL) dsDNA; experiment: Total fluorescence reverse titration of conjugate with nonlabeled consensus DNA; format: binding, S. typhimurium
Procedure: Fluorescence Measurements. Steady state fluorescence anisotropy and total fluorescence measurements were performed as forward and reverse titrations, respectively, as described previously, M. Thompson, et al., supra, 2000. Forward titrations of the tetramethylrhodamine labeled DNA (TMR-DNA) with nonlabeled DNA-binding domains were performed at 10 nM TMR-DNA. Vertical excitation was at 542 nm with detection in the verticle and horizontal planes at 582 nm. Reverse titrations of 1 nM of the appropriate conjugate were titrated with nonlabeled DNA. Excitation and emission detection was at 480 nm and 510 nm for oxazole yellow and 510 nm and 535 nm for thiazole orange samples. Salt dependence studies were performed by titrating an appropriate amount of 1 M NaCl in the same Tris buffer to yield the indicated final salt concentration. Temperature dependence studies were performed by incubating each sample for 30 minutes at the given temperature. The temperature of the sample was held constant by pumping water through the cuvette holder from a temperature equilibrated water bath. Each titration was performed at least 3 times.
Determination of thermodynamic functions. The contribution of the hydrophobic effect and the polyelectrolyte effect to the stability of the conjugate or DNA-binding domain—DNA complex is assessed by analysis of the dependence of the observed association equilibrium constant Kobs for a range of temperatures and salt concentrations as in the following: [formula]
where, [P] eq is the concentration of the conjugate or DNA-binding domain, [D] eq is the concentration of DNA, and [PD] eq is the concentration of bound complex at equilibrium. The analysis is based on the assumption that this is a single-step bimolecular reaction.
Specific binding by the dye labeled peptides (conjugates). The binding affinity of the two dye labeled peptides comprising the Hin recombinase and Tc3 transposase DNA-binding domains conjugated to oxazole yellow and thiazole orange, respectively, were determined. In this case, the total fluorescence intensity can be used to determine the binding affinity by these systems. […] In addition, the bound and free populations of the conjugate, and therefore the dye, present at equilibrium have such an extreme increase in quantum yield (˜1000-5000-fold) that the total fluorescence from the system is a very sensitive and accurate way to monitor binding. Note that each oligonucleotide shown was hybridized to […] forming a dsDNA segment.
In FIG. 9, semi-log plot of the total fluorescence of I nM conjugate is plotted as the log of the concentration of nonlabeled DNA containing each respective consensus sequence. The solid lines represent a fit for the percent of the maximal fluorescence values at 298 K, 0.150 M Na+, (●),313 K, 0.150 M Na+ (t) and 298 K, 0.250 M Na+(▪). The binding constants (Kobs) determined from these curves and the corresponding binding free energies (DG°) are given in Table 1 for the range of salt concentrations (0.15 to 0.25 M Na+) and temperatures (275 to 313 K) investigated. The equilibrium constant decreases 7- and 10-fold for the TOTc3 and YOHin, respectively, when the salt concentration is increased from 0.15 to 0.25 M salt.

dsDNA = settings: cited from earlier work
poly(dG)-poly(dC) 20-mer = experiment: Thiazole orange total fluorescence titration with non-target DNA; settings: 50 nM TO-ZF or TO; fit to equation 2; read-out: dissociation constant, non-specific binding
[2] = target: fluorescein labeled GRE2 sequence dsDNA (F-GRE2); experiment: Total fluorescence quenching (energy transfer) of fluorescein labeled DNA; format: binding
Procedure: Fluorescence Measurements. Steady state fluorescence anisotropy measurements were carried out in 20 mM Tris (pH 7.9), 30 mM NaCl, 20 mM KCl, 1 mM MgCl2, and 5% glycerol. […] DNA samples used were either the non-labeled sequences shown in FIG. 2 or a fluorescein labeled duplex with a sequence matching GRE2 (FIG. 2).
For fluorescein labeled DNA measurements, the excitation wavelength was 491 nm and the emission was recorded at 521 nm with a 1.0 nm slit width. Titrations were performed holding the concentration of fluorescein-labeled DNA constant and increasing the concentration of TO, ZF or TO-ZF as indicated. To correct for the small amount of background fluorescence from TO in these measurements, control experiments were performed in parallel using DNA that was not fluorescein labeled, but was otherwise identical to the labeled DNA fragments. The thiazole orange fluorescence intensity measured in the control experiments was subtracted from the total fluorescence intensity for each data point. Under the excitation conditions of these measurements, the contribution to fluorescence by TO at 521 nm was less than 5% of the maximum fluorescence signal observed in the experiment. Even at the point in the titration where the maximum quenching of fluorescein fluorescence was observed (the point of lowest total fluorescence in the measurement), less than half of the fluorescence was due to TO, and this could accurately be removed by subtraction of the control value. Each point is an average of 60 measurements, and each titration was performed independently three times.
Total fluorescence data were collected in parallel to the anisotropy measurements and were calculated from raw data as the fluorescence intensity in the vertical plane plus two times the fluorescence intensity of the horizontal plane, (TF=Ivv+2Ivh). These values were used to determine the percent of the maximum fluorescence for each point along the titration and fit to equation 2. [formula] […]
Fluorescence changes upon binding of TO, ZF and TO-ZF to GRE containing duplex DNA. Equilibrium binding of the non-labeled zinc finger (ZF), unconjugated thiazole orange (TO) and thiazole orange-zinc finger conjugate (TO-ZF) to fluorescein labeled GRE2 sequence dsDNA was measured by both fluorescence anisotropy and total fluorescence. […] For fluorescein fluorescence, excitation was at 491 nm and emission was detected at 521 nm. […] Changes in the steady-state anisotropy of the fluorescein fluorescence from the labeled GRE sequence containing DNA (F-GRE2) can arise from two sources. […] By comparison, the amino acid zinc finger Xfin-31 was determined to have a dissociation constant of approximately 1 μM, M. S. Lee, et al., FEBS 279:289-294 (1991), whereas, the 66 amino acid zinc finger from GATA-1 has a dissociation constant of 10 nM. […]

[3] = target: T1, TO-ZF (thiazole orange-GR zinc finger conjugate) (UniProt P06536 SEQ:1-28); experiment: TO fluorescence titration; 20 mM Tris pH 7.9, 30 mM NaCl, 20 mM KCl, 1 mM MgCl2, 5% glycerol, ZnCl2; settings: protein: synthetic; tags: thiazole orange on Lys epsilon-amine (first residue coupled to resin); synthetic solid-phase peptide (text states 29 aa, listing 28 aa), Zn-loaded
T1 chain: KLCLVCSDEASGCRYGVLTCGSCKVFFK

[4] = target: T2, YOHin (oxazole yellow-Hin recombinase DNA-binding domain, residues 139-190) (UniProt P03013 SEQ:1-52); experiment: 298 K, 0.150 M Na+; 275 K 22e6, 293 K 143e6, 313 K 29e6; 298 K 0.250 M Na+ 14e6; settings: protein: synthetic; tags: oxazole yellow covalently attached; synthetic solid-phase peptide
T2 chain: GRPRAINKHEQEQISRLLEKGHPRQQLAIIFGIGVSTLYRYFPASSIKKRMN

[5] = target: T1, TO-ZF (thiazole orange-GR zinc finger …); experiment: TO fluorescence titration; single G to A change in half-site; settings: protein: synthetic; tags: thiazole orange on Lys epsilon-amine (first residue coupled to resin); synthetic solid-phase peptide (text states 29 aa, listing 28 aa), Zn-loaded
[6] = target: T1, TO-ZF (thiazole orange-GR zinc finger …); experiment: TO fluorescence titration; single base change in half-site; settings: protein: synthetic; tags: thiazole orange on Lys epsilon-amine (first residue coupled to resin); synthetic solid-phase peptide (text states 29 aa, listing 28 aa), Zn-loaded
[7] = target: T3, TOTc3 (thiazole orange-Tc3 transposase DNA-binding domain, residues 202-253) (UniProt P34257 SEQ:1-51); experiment: 298 K, 0.150 M Na+; 275 K 22e6, 293 K 66e6, 313 K 22e6; 298 K 0.250 M Na+ 17e6; settings: protein: synthetic; tags: thiazole orange covalently attached; synthetic solid-phase peptide (text states 52 aa, listing 51 aa)
T3 chain: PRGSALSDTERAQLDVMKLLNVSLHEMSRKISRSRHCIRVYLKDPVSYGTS

[8] = target: T1, TO-ZF (thiazole orange-GR zinc finger …); experiment: TO fluorescence titration; two base changes vs GRE; settings: protein: synthetic; tags: thiazole orange on Lys epsilon-amine (first residue coupled to resin); synthetic solid-phase peptide (text states 29 aa, listing 28 aa), Zn-loaded
[9] = target: T1, TO-ZF (thiazole orange-GR zinc finger …); experiment: same as poly(dG)-poly(dC) within experimental error; settings: protein: synthetic; tags: thiazole orange on Lys epsilon-amine (first residue coupled to resin); synthetic solid-phase peptide (text states 29 aa, listing 28 aa), Zn-loaded
[10] = target: T1, TO-ZF (thiazole orange-GR zinc finger …); experiment: TO fluorescence titration; same buffer; settings: protein: synthetic; tags: thiazole orange on Lys epsilon-amine (first residue coupled to resin); synthetic solid-phase peptide (text states 29 aa, listing 28 aa), Zn-loaded

Molecule: YOHin: oxazole yellow conjugated to the 52 amino acid Hin DNA binding domain, residues 139-190 of Hin recombinase (GRPRAINKHEQEQISRLLEKGHPRQQLAIIFGIGVSTLYRYFPASRIKKRMN; also: oxazole yellow conjugated, site not given here; UniProt P03013 139-190, looked up, fragment)
- decrease of equilibrium constant when salt is increased from 0.15 to 0.25 M ([1]; 0.15 to 0.25 M salt): 10 fold
- Kobs ([1]; 275 K, 0.150 M Na+): 22 (M^−1) × 10^−6
- ΔG° ([1]; 275 K, 0.150 M Na+): -9.2 kcal/mol
- Kobs ([1]; 278 K, 0.150 M Na+): 21 (M^−1) × 10^−6
- ΔG° ([1]; 278 K, 0.150 M Na+): -9.3 kcal/mol
- Kobs ([1]; 283 K, 0.150 M Na+): 40 (M^−1) × 10^−6
- ΔG° ([1]; 283 K, 0.150 M Na+): -9.8 kcal/mol
- Kobs ([1]; 288 K, 0.150 M Na+): 61 (M^−1) × 10^−6
- ΔG° ([1]; 288 K, 0.150 M Na+): -10.3 kcal/mol
- Kobs ([1]; 293 K, 0.150 M Na+): 143 (M^−1) × 10^−6
- ΔG° ([1]; 293 K, 0.150 M Na+): -10.9 kcal/mol
- Kobs ([1]; 298 K, 0.150 M Na+): 83 (M^−1) × 10^−6
- ΔG° ([1]; 298 K, 0.150 M Na+): -10.8 kcal/mol
- Kobs ([1]; 298 K, 0.175 M Na+): 67 (M^−1) × 10^−6
- ΔG° ([1]; 298 K, 0.175 M Na+): -10.7 kcal/mol
- Kobs ([1]; 298 K, 0.200 M Na+): 37 (M^−1) × 10^−6
- ΔG° ([1]; 298 K, 0.200 M Na+): -10.3 kcal/mol
- Kobs ([1]; 298 K, 0.225 M Na+): 29 (M^−1) × 10^−6
- ΔG° ([1]; 298 K, 0.225 M Na+): -10.2 kcal/mol
- Kobs ([1]; 298 K, 0.250 M Na+): 14 (M^−1) × 10^−6
- ΔG° ([1]; 298 K, 0.250 M Na+): -9.8 kcal/mol
- Kobs ([1]; 303 K, 0.150 M Na+): 60 (M^−1) × 10^−6
- ΔG° ([1]; 303 K, 0.150 M Na+): -10.8 kcal/mol
- Kobs ([1]; 308 K, 0.150 M Na+): 41 (M^−1) × 10^−6
- ΔG° ([1]; 308 K, 0.150 M Na+): -10.7 kcal/mol
- Kobs ([1]; 313 K, 0.150 M Na+): 29 (M^−1) × 10^−6
- ΔG° ([1]; 313 K, 0.150 M Na+): -10.7 kcal/mol

Molecule: CN1C(=Cc2cc[n+](C)c3ccccc23)Sc2ccccc21 [TO, thiazole orange]
- Kd (dsDNA; 5-fold higher salt concentration, Nygren et al., Biopolymers 1998, read-out: dissociation constant for binding to dsDNA): ~3000 nM
- Kd (dsDNA; Haugland 1996, Netzel et al. 1995, read-out: Kd (moderate affinity DNA binding)): ~10000 nM
- Kd (poly(dG)-poly(dC) 20-mer): 2400 nM
- Kd ([2]; 50 nM F-GRE2, interpretation cautioned (many binding sites), read-out: dissociation constant from quenching curve): 2400 nM
- change in total fluorescein fluorescence over the titration ([2]; excitation 491 nm, emission 521 nm): large decreases in steady state fluorescence

B1: GRE1 (dsDNA)
DNA 1: TCATACCACTAACTGTTCTATCA
DNA 2: TGATAGAACAGTTAGTGGTATGA
- Kd [3]: 25 nM

B2: hixL (Hin consensus) oligonucleotide (dsDNA)
DNA 1: TCTTATCAAAAACACTATCGTCGCACGGCTAC
DNA 2: GTAGCCGTGCGACGATAGTGTTTTTGATAAGA
- Ka [4]: 8.3e+07 M⁻¹

B3: GRE3 (dsDNA)
DNA 1: TCATACATCTAACTATTCTATCA
DNA 2: TGATAGAATAGTTAGATGTATGA
- Kd [5]: 57 nM

B4: GRE4 (dsDNA)
DNA 1: TCATACATCTAACTGTCCTATCA
DNA 2: TGATAGGACAGTTAGATGTATGA
- Kd [6]: 220 nM

B5: Tc3 consensus oligonucleotide (dsDNA)
DNA 1: ATCGGCACGATGCTAGTTCTATAGGACCCCCC
DNA 2: GGGGGGTCCTATAGAACTAGCATCGTGCCGAT
- Ka [7]: 2.45e+08 M⁻¹

B6: ERE (dsDNA)
DNA 1: TCATACATCTAACTGACCTATCA
DNA 2: TGATAGGTCAGTTAGATGTATGA
- Kd [8]: 810 nM

B7: (dGdC)20 (dsDNA)
DNA 1: GCGCGCGCGCGCGCGCGCGCGCGCGCGCGCGCGCGCGCGC
DNA 2: GCGCGCGCGCGCGCGCGCGCGCGCGCGCGCGCGCGCGCGC
modifications: [none]
- Kd [9]: ~1100 nM

B8: GRE2 (dsDNA)
DNA 1: TGATACGGCTGACTGTTCTATGA
DNA 2: TCATAGAACAGTCAGCCGTATCA
- Kd [10]: 25 nM

From patent US6348317B1, “Fluorescent and DNA cleavage properties of peptide/dye conjugates” (The Arizona Board of Regents, priority 1999, dated 2002)
